According to paper PMC5353710, “Structural insights into the γ-lactamase activity and substrate enantioselectivity of an isochorismatase-like hydrolase from Microbacterium hydrocarbonoxydans” (Scientific Reports, 2017):

Biological target: isochorismatase-like hydrolase Mh33H4-5540 from Microbacterium hydrocarbonoxydans (Microbacterium hydrocarbonoxydans)
Assay: SEC; gel filtration of purified MhIHL (Supplementary Fig. S1); conditions of this run not told in the main text

Substance: isochorismatase-like hydrolase Mh33H4-5540 from Microbacterium hydrocarbonoxydans (enzyme)
- stoichiometry N: 2
